{"source": "paper PMC7839234", "format_in_all_cases": "cell-based, Homo sapiens", "conditions_in_all_cases": "sodium (lithium also drives uptake)", "key": {"CN(CC(=O)O)C(=N)N": {"tested_on": "CN(CC(=O)O)C(=N)N", "experiment": "radiolabelled uptake kinetics in transfected HEK293 Flp-In cells"}, "[1]": {"tested_on": "C[N+](C)(C)[C@@H](Cc1c[nH]c(=S)[nH]1)C(=O)[O-]", "experiment": "radiolabelled uptake kinetics in transfected HEK293 Flp-In cells"}, "[2]": {"tested_on": "NCCC(=O)N[C@@H](Cc1cnc[nH]1)C(=O)O", "experiment": "radiolabelled uptake kinetics in transfected HEK293 Flp-In cells"}, "[3]": {"tested_on": "C[N+](C)(C)C[C@H](O)CC(=O)[O-]", "experiment": "radiolabelled uptake kinetics"}}}
{"substance": "SLC22A15 (Homo sapiens)", "values": [{"measurement": "Km", "setting": "CN(CC(=O)O)C(=N)N", "value": "291 ± 124", "unit": "µM"}, {"measurement": "Km", "setting": "[1]", "value": "354 ± 95", "unit": "µM"}, {"measurement": "Km", "setting": "[2]", "value": "510 ± 175", "unit": "µM"}, {"measurement": "Km", "setting": "[3]", "value": "99 ± 94", "unit": "µM"}]}
